Measurements published in patent publication US20180127503A1 (EUREKA THERAPEUTICS, published 2018).

B1: ROR2-23 full length human IgG1 antibody (antibody, V domains shown)
VH: EVQLVQSGAEVKKPGESLKISCQGSGYRFSKYWIGWVRQMPGKGLEWMGIIYPGDSDTRYSPSFQGQVTISADKSISTAYLQWSSLKASDTAMYYCARSFSSFIYDYWGQGTLVTVSS
VL: ETTLTQSPGTLSVSPGERATLSCRASQSVSSNLAWYQQKRGQAPRLLIYGASTRATGIPVRFSGSGSGTEFTLTISRLEPEDFAVYYCQQYGRSPLTFGGGTKVDIKR
notes: The light chain of clone 023 is labelled kappa; also called clone #23; clone #023 IgG1
B2: ROR2-241 full length human IgG1 antibody (antibody, V domains shown)
VH: EVQLVQSGAEVKKPGASVKVSCKASGYTFTNYYIHWVRQAPGQGLEWMGIINPTSGRTRYAQRFQGRVTMTRDTSTNTVYMDLSSLRSEDTAMYYCARSGYYWGVNGDQWGQGTLVTVSS
VL: SYELTQPLSVSVALGQTARITCGGNNIGSKNVHWYQQKPGQAPVLVIYRDSNRPSGIPERFSGSNSGNTATLTISRAQAGDEADYYCQVWDSSIVVFGGGTKLTVLG
B3: ROR2-240 full length human IgG1 antibody (antibody, V domains shown)
VH: QITLKESGPELVKPTQTLTLTCTFSGFSLSTSGMSVSWIRQPPGKALEWLARIDWDDDKYYSTSLKTRLTISKDTSKNQVVLTMTNTDPVDTATYYCARGFYLAYGSYDSWGQGTLVTVSS
VL: QSALTQPASVSGSPGQSITISCTGTSGDVGGYNYVSWYQHHPGKAPKLIIYDVNKRPSGFSDRFSGSKSGNTASLTISGLQAEDEADYYCSSYTSTSTVFGGGTKLTVLG
notes: also called clone #240 IgG1

What was measured:
[1] = biological target: T1, human ROR2 expressed on the cell surface (human, UniProt Q01974 34-943); assay: flow cytometry, H69 cells (SCLC); parameters: unit not given here
T1 construct: Endogenous ROR2 of human tumour cell lines; also called cell surface ROR2; ROR2 on tumour cell lines
T1 sequence (Q01974 34-943 limits assumed): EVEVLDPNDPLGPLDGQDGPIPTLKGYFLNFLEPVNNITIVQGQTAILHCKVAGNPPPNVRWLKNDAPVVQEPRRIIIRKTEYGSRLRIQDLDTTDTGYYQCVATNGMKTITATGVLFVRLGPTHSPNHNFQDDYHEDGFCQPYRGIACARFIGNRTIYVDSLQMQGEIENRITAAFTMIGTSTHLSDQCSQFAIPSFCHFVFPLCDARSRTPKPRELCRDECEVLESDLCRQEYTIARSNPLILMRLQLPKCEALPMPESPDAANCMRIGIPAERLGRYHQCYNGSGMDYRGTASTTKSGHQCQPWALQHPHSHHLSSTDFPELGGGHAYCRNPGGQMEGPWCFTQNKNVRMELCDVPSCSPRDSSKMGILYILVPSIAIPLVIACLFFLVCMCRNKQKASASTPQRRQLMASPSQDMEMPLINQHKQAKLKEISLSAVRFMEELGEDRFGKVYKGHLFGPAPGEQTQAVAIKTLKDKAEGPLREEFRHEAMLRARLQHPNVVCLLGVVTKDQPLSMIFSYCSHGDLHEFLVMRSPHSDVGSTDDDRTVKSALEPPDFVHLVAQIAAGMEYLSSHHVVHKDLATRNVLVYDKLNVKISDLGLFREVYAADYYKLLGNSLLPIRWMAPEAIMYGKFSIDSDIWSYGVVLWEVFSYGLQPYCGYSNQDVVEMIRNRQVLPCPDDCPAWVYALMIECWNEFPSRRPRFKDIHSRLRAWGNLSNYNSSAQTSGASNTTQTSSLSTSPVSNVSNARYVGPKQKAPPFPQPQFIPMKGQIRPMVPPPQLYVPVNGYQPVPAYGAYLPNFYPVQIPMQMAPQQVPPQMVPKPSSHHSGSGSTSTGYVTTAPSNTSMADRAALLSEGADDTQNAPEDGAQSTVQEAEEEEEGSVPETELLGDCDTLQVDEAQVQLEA
Method: (§1) Human tumour cell lines were authenticated using short tandem repeat (STR) analysis. They were cultured in RPMI1640 (Cellgro) supplemented with 10% fetal bovine serum (FBS, Life Technologies) at 37° C. in a 5% CO₂ humidified incubator. They were harvested, washed in PBS and reacted with ROR2-IgG at 1 ug/10⁶ tumour cells on ice for an hour. #901-IgG was used as a negative control at the same dose. After washing, a secondary PE-conjugated goat anti-human IgG, Fcγ fragment specific (1:100, Jackson ImmunoResearch) was added for another 30 min incubation. Staining was analyzed on a FACSCalibur (BD Biosciences). ROR2 (full length) antibody binding towards multiple cancer cell lines were compared with Rituxan and Herceptin antibodies. The cancer cell lines were derived from breast cancer, colorectal cancer, mesothelioma, hepatocellular carcinoma, ovarian cancer, osteosarcoma, neuroblastoma, etc. ROR2 #90 antibody could recognize most of the tumour cells tested, and in some cases, the binding intensity was higher than Herceptin (see Tables 8 to 10).

[2] = biological target: T1, human ROR2 expressed on the cell surface; assay: flow cytometry, HEP G2 cells (HCC); parameters: unit not given here
Method: as §1

[3] = biological target: T1, human ROR2 expressed on the cell surface; assay: flow cytometry, TC32 cells (EW/PNET); parameters: unit not given here
Method: as §1

[4] = biological target: T1, human ROR2 expressed on the cell surface; assay: flow cytometry, TC71 cells (EW/PNET); parameters: unit not given here
Method: as §1

[5] = biological target: T1, human ROR2 expressed on the cell surface; assay: flow cytometry, M14 cells (melanoma); parameters: reference not given here
Method: as §1

[6] = biological target: T1, human ROR2 expressed on the cell surface; assay: flow cytometry, OCM1 cells (melanoma); parameters: unit not given here
Method: as §1

[7] = biological target: T1, human ROR2 expressed on the cell surface; assay: flow cytometry, CHP100 cells (EW/PNET); parameters: unit not given here
Method: as §1

[8] = biological target: T1, human ROR2 expressed on the cell surface; assay: flow cytometry, JN DSRCT cells (DSRCT); parameters: unit not given here
Method: as §1

[9] = biological target: T1, human ROR2 expressed on the cell surface; assay: flow cytometry, SKES-1 cells (EW/PNET); parameters: unit not given here
Method: as §1

[10] = biological target: T1, human ROR2 expressed on the cell surface; assay: flow cytometry, HTB27 cells (breast CA); parameters: unit not given here
Method: as §1

[11] = biological target: T1, human ROR2 expressed on the cell surface; assay: flow cytometry, HTB37-Caco2 cells (CRC); parameters: unit not given here
Method: as §1

[12] = biological target: T1, human ROR2 expressed on the cell surface; assay: flow cytometry, SKBR3 cells (breast CA); parameters: reference not given here
Method: as §1

[13] = biological target: T1, human ROR2 expressed on the cell surface; assay: flow cytometry, U251 LUC cells (glioma); parameters: unit not given here
Method: as §1

[14] = biological target: T1, human ROR2 expressed on the cell surface; assay: flow cytometry, HTB132 cells (breast CA); parameters: unit not given here
Method: as §1

[15] = biological target: T1, human ROR2 expressed on the cell surface; assay: flow cytometry, SKMEL-5 cells (melanoma); parameters: unit not given here
Method: as §1

[16] = biological target: T1, human ROR2 expressed on the cell surface; assay: flow cytometry, U2OS cells (osteosarcoma); parameters: unit not given here
Method: as §1

[17] = biological target: T1, human ROR2 expressed on the cell surface; assay: flow cytometry, NB5 cells (neuroblastoma); parameters: unit not given here
Method: as §1

[18] = biological target: T1, human ROR2 expressed on the cell surface; assay: flow cytometry, MCF7-Luc cells (breast CA); parameters: unit not given here
Method: as §1

[19] = biological target: T1, human ROR2 expressed on the cell surface; assay: flow cytometry, RG187 cells (osteosarcoma); parameters: unit not given here
Method: as §1

[20] = biological target: T1, human ROR2 expressed on the cell surface; assay: flow cytometry, NMB7 cells (neuroblastoma); parameters: unit not given here
Method: as §1

[21] = biological target: T1, human ROR2 expressed on the cell surface; assay: flow cytometry, LAN-1 cells (neuroblastoma); parameters: unit not given here
Method: as §1

[22] = biological target: T1, human ROR2 expressed on the cell surface; assay: flow cytometry, SKNJB cells (neuroblastoma); parameters: unit not given here
Method: as §1

[23] = biological target: T1, human ROR2 expressed on the cell surface; assay: flow cytometry, CRL1427 cells (osteosarcoma); parameters: unit not given here
Method: as §1

[24] = biological target: T1, human ROR2 expressed on the cell surface; assay: flow cytometry, BE(2)S cells (neuroblastoma); parameters: unit not given here
Method: as §1

[25] = biological target: T1, human ROR2 expressed on the cell surface; assay: flow cytometry, NCI-H2052 cells (mesothelioma); parameters: reference not given here
Method: as §1

[26] = biological target: T1, human ROR2 expressed on the cell surface; assay: flow cytometry, HTB26 (MDA-MB-231) cells (breast CA); parameters: unit not given here
Method: as §1

[27] = biological target: T2, human ROR2 extracellular domain (ROR2 ECD recombinant protein) (human, UniProt Q01974 34-403); assay: kinetic binding analysis, full length IgG1 on human ROR2-ECD
T2 construct: also called human ROR2-ECD; hROR2-ECD
T2 sequence (Q01974 34-403): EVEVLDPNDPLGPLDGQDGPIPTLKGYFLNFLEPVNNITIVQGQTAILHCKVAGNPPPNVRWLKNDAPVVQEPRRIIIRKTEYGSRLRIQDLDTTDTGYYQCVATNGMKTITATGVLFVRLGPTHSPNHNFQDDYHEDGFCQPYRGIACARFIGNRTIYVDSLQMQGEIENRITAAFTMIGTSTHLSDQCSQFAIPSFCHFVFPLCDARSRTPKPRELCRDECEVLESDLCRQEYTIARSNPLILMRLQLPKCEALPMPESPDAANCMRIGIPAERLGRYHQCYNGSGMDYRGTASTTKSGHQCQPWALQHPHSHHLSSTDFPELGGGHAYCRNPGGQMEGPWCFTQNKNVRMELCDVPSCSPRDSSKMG

| Binder | binding intensity [1] | binding intensity [2] | binding intensity [3] | binding intensity [4] | binding intensity [5] | binding intensity [6] | binding intensity [7] | binding intensity [8] | binding intensity [9] | binding intensity [10] | binding intensity [11] | binding intensity [12] | binding intensity [13] | binding intensity [14] | binding intensity [15] | binding intensity [16] | binding intensity [17] | binding intensity [18] | binding intensity [19] | binding intensity [20] | further results |
| --- | --- | --- | --- | --- | --- | --- | --- | --- | --- | --- | --- | --- | --- | --- | --- | --- | --- | --- | --- | --- | --- |
| B1 | 9 | 30 | 37 | 46 | 9 | 10 | 30 | 50 | 22 | 58 | 37 | 48 | 14 | 5 | 7 | 52 | 32 | 111 | 44 | 35 | binding intensity [21]: 34; binding intensity [22]: 182; binding intensity [23]: 30; binding intensity [24]: 26; binding intensity [25]: 65; binding intensity [26]: 11; Kd [27]: 0.164 nM; koff [27]: 0.000432 s⁻¹; kon [27]: 2.63e+06 M⁻¹ s⁻¹ |
| B2 | 131 | 36 | 17 | 12 | 12 | 19 | 16 | 27 | 12 | 24 | 24 | 27 | 120 | 45 | 5 | 60 | 56 | 42 | 29 | 58 | binding intensity [21]: 68; binding intensity [22]: 238; binding intensity [23]: 54; binding intensity [24]: 58; binding intensity [25]: 43; binding intensity [26]: 23; Kd [27]: 0.31 nM; koff [27]: 0.000538 s⁻¹; kon [27]: 1.74e+06 M⁻¹ s⁻¹ |
| B3 | 9 | 4 | 4 | 10 | 4 | 3 | 7 | 3 | 5 | 7 | 6 | 5 | 5 | 4 | 1 | 39 | 17 | 39 | 4 | 33 | binding intensity [21]: 37; binding intensity [22]: 199; binding intensity [23]: 4; binding intensity [24]: 26; binding intensity [25]: 8; binding intensity [26]: 4; Kd [27]: 0.063 nM; koff [27]: 4.45e-05 s⁻¹; kon [27]: 706000 M⁻¹ s⁻¹ |
